Numbering of substitutions follows the chain as printed.
T1: Cynomolgus CD3εδ Fc heterodimer (Cy CD3ε Fc / CD3δ Fc-HIS) (cynomolgus, UniProt Q95LI8 22-100)
T1 chain 1: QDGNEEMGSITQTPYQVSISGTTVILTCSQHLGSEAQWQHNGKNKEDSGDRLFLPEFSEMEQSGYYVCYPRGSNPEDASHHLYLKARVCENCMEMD
T1 chain 2: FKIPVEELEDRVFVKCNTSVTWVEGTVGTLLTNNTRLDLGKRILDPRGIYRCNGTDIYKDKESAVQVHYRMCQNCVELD

B1: SAD10320_P02_F06 (ADI-57370) (antibody, V domains shown)
VH: QVQLVQSGAEVKKPGASVKVSCKASGFNIKDYYMHWVRQAPGQRLAWMGWIDLENANTIYDAKFQGRVTITRDTSASTAYMELSSLRSEDTAVYYCARDAYGRFHYDVWGQGTLVTVSS
VL: DIVMTQSPDSLAVSLGERATINCKSSQSLLNARPGKNYLAWYQQKPGQPPKLLIYWASTRESGVPDRFSGSGSGTDFTLTISSLQAEDVAVYYCKQSYSRRTFGGGTKVEIK
notes: IgG; also called Ab87
B2: SAD10320_P02_G06 (ADI-57371) (antibody, V domains shown)
VH: B1 VH with A46D, F104H, H105F
VL: B1 VL with P34T, G35R, K36T
notes: IgG; also called Ab88
B3: LAD9953_P01_H01 (ADI-57437) (antibody, V domains shown)
VH: B1 VH with A46E, F104Y, H105F
VL: B1 VL with N31H, P34T, G35H
notes: IgG; also called Ab167
B4: LAD9954_P01_B02 (ADI-57438) (antibody, V domains shown)
VH: B1 VH with A46E, F104Y, H105F
VL: B1 VL with N31H, P34T, K36H
notes: IgG; also called Ab168
B5: LAD9955_P01_G02 (ADI-57439) (antibody, V domains shown)
VH: B1 VH with A46E, F104Y, H105F
VL: B1 VL with N31H, P34T, Y38H
notes: IgG; also called Ab170
B6: LAD9959_P01_E04 (ADI-57441) (antibody, V domains shown)
VH: B1 VH with A46E, F104Y, H105F
VL: B1 VL with P34T, G35H, K36H
notes: IgG; also called Ab172
B7: LAD9964_P01_C07 (ADI-57444) (antibody, V domains shown)
VH: B1 VH with A46E, F104Y, H105F
VL: B1 VL with P34T, G35H

Target: T1, Cynomolgus CD3εδ Fc heterodimer (Cy …)
Experiment: BLI (Octet), IgG on AHC sensor, pH 6.0

Compared with B1, B2 is 4.4-fold lower in koff: 0.017 s⁻¹ for the first, 0.00387 s⁻¹ for the second.

Compared with B3, B4 is 1.7-fold higher in koff: 0.0176 s⁻¹ for the first, 0.0303 s⁻¹ for the second.

First: B5
Second: B6
The koff of the first is 16-fold higher: 0.0282 s⁻¹ for the first, 0.00174 s⁻¹ for the second.

Binder B7 has a koff of 0.000637 s⁻¹.

Target: T1, Cynomolgus CD3εδ Fc heterodimer (Cy …)
Experiment: BLI (Octet), IgG on AHC sensor, pH 7.4

First: B1
Second: B2
The Kd of the first is 2.2-fold higher: 141 nM for the first, 64.8 nM for the second.

Going from B3 to B4, the Kd falls from 86.7 nM to 33.9 nM (2.6-fold).

B5 and B6 are within 1.5-fold of each other in Kd: 127 nM for the first, 89.6 nM for the second.

Work on B7 yielded a Kd of 4.71 nM.

B1 and B2 are within 1.5-fold of each other in koff: 0.0166 s⁻¹ for the first, 0.0219 s⁻¹ for the second.

Compared with B3, B4 is 2-fold lower in koff: 0.0209 s⁻¹ for the first, 0.0107 s⁻¹ for the second.

B5 and B6 are within 1.5-fold of each other in koff: 0.0187 s⁻¹ for the first, 0.0189 s⁻¹ for the second.

With B7 the koff was 0.00146 s⁻¹.

First: B1
Second: B2
The kon of the first is 2.9-fold lower: 118000 M⁻¹ s⁻¹ for the first, 338000 M⁻¹ s⁻¹ for the second.

B3 and B4 are within 1.5-fold of each other in kon: 242000 M⁻¹ s⁻¹ for the first, 316000 M⁻¹ s⁻¹ for the second.

B5 and B6 are within 1.5-fold of each other in kon: 147000 M⁻¹ s⁻¹ for the first, 210000 M⁻¹ s⁻¹ for the second.

B7 gave a kon of 310000 M⁻¹ s⁻¹.

From patent US20220380463A1 (Adimab, published 2022)
